Results from US9725702B2, “Laccase from ganoderma lucidum capable of enhancing enzymatic degradation of lignocellulolytic biomass” (DANMARKS TEKNISKE UNIVERSITET, priority 2012, dated 2017).

Assays:
[1] = Temperature stability of LacGL1 laccase at pH 4.7; type: physicochemical; conditions: for activity retained: pH 4.7
Experimental: FIG. 9. The temperature stability profile of LacGL1 laccase as a function of LN [U/mL] vs. incubation time at pH 4.7 and 0.1 M citrate-phosphate buffer. […] The relative difference between single measurements was <5%.
FIG. 10. LacGL1 laccase stability evolution plot at optimum pH of 4.7 and two different temperature values (40° C. and 50° C.). Since the plot is a continuation of temperature stability plot (FIG. 9), the first measurement is given after 1 h. Laccase residual activity [%] is calculated based on activity value of laccase measured at pH 4.7 and 25° C. The relative difference between single measurements was <5%.
The predicted optimal conditions for the LacGL1 laccase activity were validated by measuring the effect of temperature on the relative activity of LacGL1 laccase at pH 4.7. […] (FIG. 10).

[2] = Substrate specificity of laccase (relative rate of product formation); type: biochemical
Experimental: The laccase activity was measured based on a modified method of Ters et al. (2009). The laccase activity was defined as the amount of the enzyme required to oxidise 1 μmol of ABTS per minute at 25° C., and pH 4.7. The assay mixture contained: 0.1 M citrate-phosphate buffer (255 μL, pH 4.7), ABTS (5 μL, 4 mM (ABTS stock solution)), and pre-diluted laccase (5 μL) that ensured the linear range of Michaelis-Menten kinetics. The oxidation of ABTS was monitored at 420 nm (ε420=36800 M^−1cm^−1) for 2 min. in an Infinite 200 microtiter plate reader (Tecan, Salzburg, Austria). Laccase activity assays on the substrates: hydroquinone (248 nm), 2.6-dimethoxyphenol (470 nm), and guaiacol (436 nm) was done similarly with the substrate concentration as described in Table 2 using the following extinction coefficient values: 17.542 M^−1cm^−1, 35.645 M^−1cm^−1, and 6.400 M^−1cm^−1, respectively (Minussi et al. 2007). The data collection was monitored by the program Tecan i-control version 1.5.14.0 (Tecan, Salzburg, Austria). The calculated laccase activity was corrected by the absorbance of a control sample which contained: 0.1 M citrate-phosphate buffer (255 μL, pH 4.7), ABTS (5 μL, 4 mM), and 5 μL of distilled water instead of the enzyme. All determinations of the laccase activity were performed in duplicates, with an average sample standard deviation less than 5%.
LacGL1 laccase was able to oxidize both ABTS and other phenolic compounds (Table 5) such as: hydroquinone, guaiacol, and 2.6-dimethoxyphenol, however in a slower rate than for ABTS.

[3] = Glucose release in LacGL1-cellulase (Cellic CTec1, CTec2) catalyzed hydrolysis of STEX SCB; type: biochemical
Experimental: FIG. 11. A graphical comparison of yields of released glucose over time in LacGL1-Cellic® CTec1 catalyzed hydrolysis STEX-SCB at different pH and temperatures. The cellulase preparation is Cellic® CTec1 (CC1) and laccase was Ganoderma lucidum LacGL1 expressed in Pichia pastoris X-33. CC1 and LacGL1 were added in E/S ratio of 0.064%, and 0.4% (w/w), respectively.
FIG. 12. A graphical comparison of the yields of released glucose over time in LacGL1-Cellic® CTec2 catalyzed hydrolysis of STEX-SCB at different pH and temperatures. The cellulase preparation is Cellic® CTec2 (CC2) and laccase was Ganoderma lucidum LacGL1 expressed in Pichia pastoris X-33. […] and LacGL1 were added in E/S ratio of 0.064%, and 0.4% (w/w), respectively.
5% (w/v) dry matter of pretreated SCB (STEX SCB) was evaluated in 0.1 M citrate-phosphate buffer at pH 4.7 and 40° C. (optimal for the LacGL1 laccase) or pH 5.1 and 50° C. (optimal for the cellulase preparations), respectively. The commercially available cellulase cocktail preparations: Cellic® CTec1 and Cellic® CTec2 (0.064% Enzyme/Substrate ratio (E/S), w/w; Novozymes, Bagsværd, Denmark) were used with the combination of the LacGL1 laccase (0.4% E/S, w/w). The hydrolysis reactions were collected after 0, 1, 3, 5, 16, and 24 hours and stopped by incubation at 99° C. for 15 min. The samples were then centrifuged at 10.000 rpm for 2 min., the supernatants were filtered through 0.2 μm filter and the yields of released glucose were quantified using the D-glucose-HK kit (Megazyme, Denmark). The glucose yields released over time were corrected for the glucose content of the hydrolysis sample at time 0. The E/S dosage was based on the total protein concentration used. The protein quantification was performed using the Pierce BCA (BiCinchoninic Acid) protein assay kit microplate procedure according to manufacturer's instructions (Thermo Fisher Scientific, Rockford, US) using Bovine serum albumin (BSA) was used as a standard, as described before (Silva et al. 2011). The Cellic® CTec1 (CC1) and Cellic® CTec2 (CC2), cellulase preparations, are based on the Trichoderma reesei cellulase complex (exo-glucanase, endo-glucanase, and β-glucosidase activities) with additional β-glucosidase and glycoside hydrolase family 61 hydrolyse boosting proteins (Harris 2010). All determinations of the enzymatic hydrolysis samples were performed in duplicates.
Release of glucose during cellulose hydrolysis of STEX SCB is enhanced by the addition of LacGL1 laccase in a dosage dependent manner (data not shown). The combined laccase plus cellulase treatment of STEX SCB were performed at two different conditions: Firstly, at […], 40° C. which is optimal for the LacGL1 laccase (as previously shown from MODDE pH-temp.-activity model, FIG. 8 and thermal stability plots, FIGS. 9, 10), which are slightly less optimal for cellulases; and secondly at 50° C. and pH 5.1, which are the golden standard conditions for optimal performance of CC1 and CC2. From the MODDE data, […]: the type of the cellulase preparation, the addition of LacGL1, the temperature, and the pH of the reaction (FIG. 11, 12). Overall, the highest rate of STEX SCB hydrolysis, considering all of the aforementioned factors, was obtained for the combination of LacGL1-Cellic® CTec2 at pH 5.1 and 50° C. […] The higher pH and temperature enhanced LacGL1-CC2 catalyzed hydrolysis by 12% (FIG. 12).

[4] = Michaelis constant (Km) of laccase for ABTS, Hanes-Wolf plot; type: biochemical; conditions: substrate ABTS

Laccase relative rate of product formation ([2]; substrate 2.6-Dimethoxyphenol 1 mM): 61%
Laccase relative rate of product formation ([2]; substrate ABTS 1 mM): 100%
Laccase relative rate of product formation ([2]; substrate Guaiacol 1 mM): 66%
Laccase relative rate of product formation ([2]; substrate Hydroquinone 1 mM): 80%
total glucose yield higher than CC2 alone ([3]; LacGL1-Cellic CTec2 at pH 5.1, 50° C. vs CC2 alone at pH 4.6, 40° C.): 27.5%
total glucose yield higher than CC2 alone ([3]; LacGL1-Cellic CTec2 at pH 5.1, 50° C. vs CC2 alone under the same conditions): 19%
enhancement of LacGL1-CC2 catalyzed hydrolysis by higher pH and temperature ([3]; pH 5.1, 50° C. vs pH 4.6, 40° C.): 12%
B1: LacGL1: Fungal laccase from Ganoderma lucidum CBS229.93 (SEQ ID NO: 5/9), recombinantly expressed in Pichia pastoris X-33 (protein, listed as Ganoderma lucidum)
chain: GIGPKTDLTISNADVAPDGYTRAAVVVNGVFPAPLITGNKGDRFQLNVIDQMTNHTMLKSTSIHWHGFFQKGTNWADGPAFINQCPISSGHSFLYDFQVPDQAGTFWYHSHLSTQYCDGLRGPFVVYDPKDPLKKLYDIDDDSTVITLTDWYHVAARLGPRFPLGSDSTLINGLGRSTTNVTADLAVINVTQGKRYRFRLVSLSCDPNYTFSIDDHNMTVIEADGIETQPVTVNAIQIFSAQRYSFVLTANQTIDNYWIRANPNFGNVGFTDGINSAILRYAGADPVEPTTSQQTTQNLLNEVDLHPFVPKRTPGQPTQGGVDTAINMVFNFNGSNFFINNASFVPPTVPVLLQILSGAQAAQDLLPSGSVYTLPVNKSIELTFPATANAPGAPHPFHLHGHAFAVVRSAGSTVYNYDNPVWRDVVSTGTPAAGDNVTIRFQTDNPGPWFLHCHIDFHLEAGFAVVFAEDPTDTSLANPVPKAWSDLCPTYDALSVDDQ
modifications: mat_peptide (1)..(499) Mature LacGL1 laccase (minus signal peptide)
change of activity ([1]; 25, 40 and 50° C., pH 4.7, within an hour): did not change significantly
laccase activity remaining ([1]; 60° C., pH 4.7, within an hour): 19%
laccase activity remaining ([1]; 70° C., pH 4.7, within an hour): 3%
activity retained ([1]; after 5 h at 50° C.): 23%
activity retained ([1]; after 24 h at 40° C.): 33%
improvement in glucose yields over CC1 at pH 5.1 and 50° C. ([3]; LacGL1-CC1 at pH 4.6, 40° C.): 66%
improvement in glucose yields over LacGL1-CC1 at pH 5.1 and 50° C. ([3]; LacGL1-CC1 at pH 4.6, 40° C.): 48%
enhancement of CC1 mediated-hydrolysis ([3]; pH 4.6, 40° C.): 30%
Km ([4]; laccase expressed in Ganoderma lucidum CBS229.93 (native)): 107 µM
Km ([4]; recombinantly expressed in Pichia pastoris): 122 µM
